The record followed here is patent publication US20040175720A1 (NEW YORK UNIVERSITY, published 2004).

To fix the notation:
B2: B42-NIF-1 (full-length), B42 activation domain fusion expressed from pJG4-5 in yeast (other, not shown: large carriers)
chain: MEENEVESSSDAAPGPGRPEEPSESGLGVGTSEAVSADSSDAAAAPGQAEADDSGVGQSSDRGSRSQEEVSESSSSADPLPNSYLPDSSSVSHGPVAGVTGGPPALVHSSALPDPNMLVSDCTASSSDLGSAIDKIIESTIGPDLIQNCITVTSAEDGGAETTRYLILQGPDDGAPMTSPMSSSTLAHSLAAIEALADGPTSTSTCLEAQGGPSSPVQLPPASGAEEPDLQSLEAMMEVVVVQQFKCKMCQYRSSTKATLLRHMRERHFRPVAAAAAAAGKKGRLRKWSTSTKSQEEEGPEEEDDDDIVDAGAIDDLEEDSDYNPAEDEPRGRQLRLQRPTPSTPRPRRRPGRPRKLPRLEISDLPDGVEGEPLVSSQSGQSPPEPQDPEAPSSSGPGHLVAMGKVSRTPVEAGVSQSDAENAAPSCPDEHDTLPRRRGRPSRRFLGKKYRKYYYKSPKPLLRPFLCRICGSRFLSHEDLRFHVNSHEAGDPQLFKCLQCSYRSRRWSSLKEHMFNHVGSKPYKCDECSYTSVYRKDVIRHAAVHSRDRKKRPDPTPKLSSFPCPVCGRVYPMQKRLTQHMKTHSTEKPHMCDKCGKSFKKRYTFKMHLLTHIQAVANRRFKCEFCEFVCEDKKALLNHQLSHVSDKPFKCSFCPYRTFREDFLLSHVAVKHTGAKPFACEYCHFSTRHKKNLRLHVRCRHASSFEEWGRRHPEEPPSRRRPFFSLQQIEELKQQHSAAPGPPPSSPGPPEIPPEATTFQSSEAPSLLCSDTLGGATIIYQQGAEESTAMATQTALDLLLNMSAQRELGGTALQVAVVKSEDVEAGLASPGGQPSPEGATPQVVTLHVAEPGGGAAAESQLGPPDLPQITLAPGPFGGTGYSVITAPPMEEGTSAPGTPYSEEPAGEAAQAVVVSDTLKEAGTHYIMATDGTQLHHIELTADGSISFPSPDALASGAKWPLLQCGGLPRDGPEPPSPAKTHCVGDSQSSASSPPATSKALGLAVPPSPPSAATAASKKFSCKICAEAFPGRAEMESHKRAHAGPGAFKCPDCPFSARQWPEVRAHMAQHSSLRPHQCSQCSFASKNKKDLRRHMLTHTKEKPFACHLCGQRFNRNGHLKFHIQRLHSPDGRKSGTPTARAPTQTPTQTIILNSDDETLATLHTALQSSHGVLGPERLQQALSQEHIIVAQEQTVTNQEEAAYIQEITTADGQTVQHLVTSDNQVQYIISQDGVQHLLPQEYVVVPEGHHIQVQEGQITHIQYEQGAPFLQESQIQYVPVSPGQQLVTQAQLEAAAHSAVTAVADAAMAQAQGLFGTDETVPEHIQQLQHQGIEYDVITLADD
notes: also called NIF-1 expressed as a B42-fusion

The target in experiment [1] is B2. In words: yeast two-hybrid, B42-NIF-1 (full-length) against LexA full-length cTRα. Here is the method:
To examine for this possibility, the interaction of B42-NIF-1 (full-length), conditionally expressed from pJG4-5, was studied with LexA fusions of nuclear receptor LBDs (cTRα, ERa, RXRα, GR, RARα, and PPARα) in yeast, as shown in FIG. 7. In addition, a LexA-fusion of full-length cTRα was also tested against B42-NIF-1 (full-length) and gave similar results as with the cTRα LBD. […] To document that the LexA-LBD fusions were expressed and responded to ligand in yeast, similar studies were carried out with B42-NRC.

In experiment [2] the target is T1, LexA-NRC-b (LexA DBD fused to NRC amino acids 849-2063), bait of the two-hybrid screen (UniProt P0A7C2 1-202; Q14686 849-2063).
T1 construct: domain: LexA DBD;range 849-2063
In words: yeast two-hybrid, LexA-NRC fusions against B42-NIF-1 constructs (FIG. 6A). The source says: Cell. Biol. 20:5048-5063 (2000), which is hereby incorporated by reference in its entirety). The yeast strain EGY48 harboring the LacZ reporter pSH1 8-34 (Gyuris et al., “Cdi1, A Human G1 and S Phase Protein Phosphatase that Associates with Cdk2,” Cell 75:791-803 (1993), which is hereby incorporated by reference in its entirety), and pEG202ΔPL-NRC-b was transformed with the GH4C1 pJG4-5 cDNA library. Transformants were directly screened on X-gal SD-galactose-raffinose plates lacking trp, ura, his, and leu. Putative positive clones were further purified on trp⁻, ura⁻, his⁻, and leu⁻ SD-galactose-raffinose plates. The purified clones were plated on SD-dextrose/trp⁻, ura^{-,} his⁻ plates to repress the expression of cDNAs from pJG4-5. Galactose-inducible interactions were verified upon replica plating each clone on trp⁻, ura⁻, his⁻, leu⁻ X-gal SD-galactose-raffinose and trp⁻, ura⁻, his⁻ X-gal SD-dextrose plates. […] The putative cDNAs from positive clones were further verified against several different baits. The positive interactors were then sequenced and subjected to restriction digestion, size determination, and further analysis.
Various regions of NRC were expressed as LexA fusions in yeast (designated as rows “a-g” in FIG. 6A) and their interaction compared with full-length NIF-1, NIF-2, and various deletions of NIF-1 conditionally expressed from pJG4-5. […]

B1: LexA-fusion of full-length cTRα (receptor, UniProt P0A7C2 1-202, looked up)
chain: MKALTARQQEVFDLIRDHISQTGMPPTRAEIAQRLGFRSPNAAEEHLKALARKGVIEIVSGASRGIRLLQEEEEGLPLVGRVAAGEPLLAQQHIEGHYQVDPSLFKPNADFLLRVSGMSMKDIGIMDGDLLAVHKTQDVRNGQVVVARIDDEVTVKRLKKQGNKVELLPENSEFKPIVVDLRQQSFTIEGLAVGVIRNGDWLMEQKPSTLDPLSEPEDTRWLDGKRKRKSSQCLVKSSMSGYIPSYLDKDEQCVVCGDKATGYHYRCITCEGCKGFFRRTIQKNLHPTYSCKYDGCCVIDKITRNQCQLCRFKKCISVGMAMDLVLDDSKRVAKRKLIEENRERRRKEEMIKSLQHRPSPSAEEWELIHVVTEAHRSTNAQGSHWKQKRKFLPEDIGQSPMASMPDGDKVDLEAFSEFTKIITPAITRVVDFAKKLPMFSELPCEDQIILLKGCCMEIMSLRAAVRYDPESETLTLSGEMAVKREQLKNGGLGVVSDAIFDLGKSLSAFNLDDTEVALLQAVLLMSSDRTGLICVDKIEKCQETYLLAFEHYINYRKHNIPHFWPKLLMKVTDLRMIGACHASRFLHMKVECPTELFPPLFLEVFEDQEV
notes: domain: LexA DBD;mature
For the molecule B1, the binding result in experiment [1] was “no binding”.

On to B2, for which, in experiment [2], the binding result is recorded as “binds”.
